Assay results from patent US20110091971A1, “Differentiation of Pluripotent Stem Cells” (priority 2008, published 2011).
Numbering of substitutions follows the chain as printed. “And” between values parts separate entries of the source, which are not always exact repeats. Equal entries are not always repeated.

Tested on: H1 or H9 human embryonic stem cells
Assay: Activin A bioassay: differentiation of human embryonic stem cells to definitive endoderm, cell number and SOX17 intensity by high content analysis (96-well, four days);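 on Cell Number average: Raw total cell count per well from high content imaging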;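 on Sox 17 Intensity average: total fluorescence of the cell multiplied by cell area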
Type: cell-based
Conditions: for Sox 17 Intensity % of control: control = R&D Sys Activin A 100 ng/ml on same plate
Description: Activin A is an important mediator of differentiation in a broad range of cell types. […] A bioassay that measures this differentiation in human embryonic stem cells was adapted in miniaturized format to 96-well plates for screening purposes. Validation was completed using treatment with commercial sources of activin A and Wnt3a recombinant proteins and measuring protein expression of the transcription factor SOX17, which is considered a representative marker of definitive endoderm.
Live Cell Assay: Briefly, clusters of H1 or H9 human embryonic stem cells were grown on growth factor-reduced MATRIGEL™ (Invitrogen; Cat #356231)-coated tissue culture plastic. Cells were passaged using collagenase (Invitrogen; Cat # Cat #17104-019) treatment and gentle scraping, washed to remove residual enzyme, and plated in a ratio of 1:1 (surface area) on growth factor-reduced MATRIGEL™-coated 96-well plates (black, 96-well; Packard ViewPlates; Cat #6005182). Cells were allowed to attach as clusters and then recover log phase growth over a 1 to 3 day period, feeding daily with MEF conditioned medium supplemented with 8 ng/ml bFGF (R&D Systems; Cat #233-FB).
The assay was initiated by washing the wells of each plate twice in PBS and followed by adding an aliquot (100 μl) of test sample in DMEM:F12 basal medium (Invitrogen; Cat #11330-032) to each well. Test conditions were performed in triplicate, feeding […] by aspirating and replacing the medium from each well with test samples over a total four day assay period. On the first and second day of assay, test samples added to the assay wells were diluted in DMEM:F12 with 0.5% FCS (HyClone; Cat #SH30070.03) and 20 ng/ml Wnt3a (R&D Systems; Cat #1324-WN). On the third and fourth day of assay, test samples added to the assay wells were diluted in DMEM:F12 with 2% FCS, without any Wnt3a. Positive control samples consisted of recombinant human activin A (Peprotech; Cat #120-14) added at a concentration of 100 ng/ml throughout assay plus Wnt3a (20 ng/ml) on days 1 and 2. Negative control samples omitted treatment with both activin A and Wnt3a.
High Content Analysis: At the conclusion of four days of culture, assay plates were washed twice with PBS, fixed with 4% paraformaldehyde at room temperature for 20 minutes, then washed three times with PBS and permeabilized with 0.5% Triton X-100 for 20 minutes at room temperature. Cells were washed again three times with PBS and blocked with 4% chicken serum (Invitrogen; Cat #16110082) in PBS for 30 minutes at room temperature. Primary antibody (goat anti-human SOX17; R&D Systems; cat #AF1924) was diluted 1:100 in 4% chicken serum and added to each well for one hour at room temperature. Alexa Fluor 488 conjugated secondary antibody (chicken anti-goat IgG; Molecular Probes; Cat #) was diluted 1:200 in PBS and added to each sample well after washing three times with PBS. To counterstain nuclei, 4 μg/ml Hoechst 33342 (Invitrogen; Cat #H3570) was added for ten minutes at room temperature. Plates were washed once with PBS and left in 100 μl/well PBS for imaging.
Imaging was performed using an IN Cell Analyzer 1000 (GE Healthcare) utilizing the 51008bs dichroic for cells stained with Hoechst 33342 and Alexa Fluor 488. Exposure times were optimized from positive control wells and from untreated negative control wells stained with secondary antibody alone. Images from 15 fields per well were acquired to compensate for any cell loss during the bioassay and subsequent staining procedures. Measurements for total cell number and total SOX17 intensity were obtained from each well using IN Cell Developer Toolbox 1.7 (GE Healthcare) software. Segmentation for the nuclei was determined based on grayscale levels (baseline range 100-300) and nuclear size. Averages and standard deviations were calculated for each replicate data set. […]

[1] = supernatant concentration 1x, assay dilution 1:20
[2] = supernatant concentration 10x, assay dilution 1:20
[3] = supernatant concentration 10x, assay dilution 1:40
[4] = supernatant concentration 10x, assay dilution 1:20, assay plates #007, #009, #010
[5] = supernatant concentration 50x, assay dilution 1:20, assay plates #008, #009

B1: ACTN41: activin A variant peptide, SEQ ID 42 (protein)
chain: GLECDGKVNLCCKKQDFVSFKDIGWNDWIIAPSGYHANSCSGLCPSHIAGTSGSSLSFHSTVINHYRMRGHSPFSDRGACCIPTKLRPMSMLYYDDGQNIIKKDIQNMIVEECGCS
**Q.** How did the “Cell Number average” value [1] turn out when B1 was run?
**A.** 6073

**Q.** What about the “Sox 17 Intensity average” value [1] of the same molecule?
**A.** 1.42E+05

**Q.** What about the “Sox 17 Intensity % of control” value [1] of the same molecule?
**A.** 1.5%

**Q.** What about the “Cell Number average” value [2] of the same molecule?
**A.** 1397

**Q.** What about the “Sox 17 Intensity average” value [2] of the same molecule?
**A.** 1.46E+05

**Q.** What about the “Sox 17 Intensity % of control” value [2] of the same molecule?
**A.** 1.6%

**Q.** What about the “Cell Number average” value [3] of the same molecule?
**A.** 2643

**Q.** And the “Sox 17 Intensity average” value [3]?
**A.** 6.30E+04

**Q.** What about the “Sox 17 Intensity % of control” value [3] of the same molecule?
**A.** 0.7%

B2: ACTN47: activin A variant peptide, SEQ ID 48 (protein)
chain: B1 chain with L10Y, D16N, S39E, L43K, R77M, A79S
**Q.** B2 was tested. Which “Cell Number average” value [1] did it give?
**A.** 2624

**Q.** What about the “Sox 17 Intensity average” value [1] of the same molecule?
**A.** 7.48E+05

**Q.** What about the “Sox 17 Intensity % of control” value [1] of the same molecule?
**A.** 8.0%

**Q.** And the “Cell Number average” value [2]?
**A.** 1399

**Q.** What about the “Sox 17 Intensity average” value [2] of the same molecule?
**A.** 4.27E+06

**Q.** And the “Sox 17 Intensity % of control” value [2]?
**A.** 45.7%

**Q.** What about the “Cell Number average” value [3] of the same molecule?
**A.** 1610

**Q.** What about the “Sox 17 Intensity average” value [3] of the same molecule?
**A.** 1.09E+06

**Q.** And the “Sox 17 Intensity % of control” value [3]?
**A.** 11.7%

B3: ACTN45: activin A variant peptide, SEQ ID 46 (protein)
chain: B1 chain with L10T, D16N, S39E, L43K, S75A, D76N, R77M
**Q.** What does the source list for B3?
**A.** Cell Number average [1]: 4591; Sox 17 Intensity average [1]: 1.48E+05; Sox 17 Intensity % of control [1]: 1.6%; Cell Number average [2]: 2058; Sox 17 Intensity average [2]: 1.13E+05; Sox 17 Intensity % of control [2]: 1.2%; Cell Number average [3]: 4482; Sox 17 Intensity average [3]: 2.30E+04; Sox 17 Intensity % of control [3]: 0.2%

B4: ACTN44: activin A variant peptide, SEQ ID 45 (protein)
chain: B1 chain with D16N, S39E, L43K, R77M
**Q.** Which “Cell Number average” value [1] does the source give for B4 here?
**A.** 3657

**Q.** And the “Sox 17 Intensity average” value [1]?
**A.** 5.01E+04

**Q.** And the “Sox 17 Intensity % of control” value [1]?
**A.** 0.5%

**Q.** And the “Cell Number average” value [2]?
**A.** 1508

**Q.** What about the “Sox 17 Intensity average” value [2] of the same molecule?
**A.** 3.24E+05

**Q.** What about the “Sox 17 Intensity % of control” value [2] of the same molecule?
**A.** 3.5%

**Q.** What about the “Cell Number average” value [3] of the same molecule?
**A.** 2272

**Q.** And the “Sox 17 Intensity average” value [3]?
**A.** 1.58E+05

**Q.** What about the “Sox 17 Intensity % of control” value [3] of the same molecule?
**A.** 1.7%

B5: ACTN43: activin A variant peptide, SEQ ID 44 (protein)
chain: B1 chain with L10Y, S39R, S41D, L43K, R77M, I82V
**Q.** Which “Cell Number average” value [1] does the source give for B5 here?
**A.** 657

**Q.** And the “Sox 17 Intensity average” value [1]?
**A.** 1.85E+04

**Q.** What about the “Sox 17 Intensity % of control” value [1] of the same molecule?
**A.** 0.2%

**Q.** And the “Cell Number average” value [2]?
**A.** 877

**Q.** And the “Sox 17 Intensity average” value [2]?
**A.** 2.13E+05

**Q.** What about the “Sox 17 Intensity % of control” value [2] of the same molecule?
**A.** 2.3%

**Q.** And the “Cell Number average” value [3]?
**A.** 1251

**Q.** What about the “Sox 17 Intensity average” value [3] of the same molecule?
**A.** 5.57E+04

**Q.** And the “Sox 17 Intensity % of control” value [3]?
**A.** 0.6%

B6: ACTN52: activin A variant peptide, SEQ ID 53 (protein)
chain: GLECDGKVNICCKKQLFGKTKDIGWNDWIIAPSGYHGGSCTGECPSHIAGTSGSSLSFHSTVINHYRMRGHSPNANLKSCCSPTKLRPMSMLYYDDGQNIIKKDIQGMKVEECGCT
**Q.** With B6 as the molecule, how does the “Cell Number average” value [1] read?
**A.** 3092

**Q.** And the “Sox 17 Intensity average” value [1]?
**A.** 1.17E+05

**Q.** What about the “Sox 17 Intensity % of control” value [1] of the same molecule?
**A.** 1.3%

**Q.** And the “Cell Number average” value [2]?
**A.** 4869

**Q.** And the “Sox 17 Intensity average” value [2]?
**A.** 2.64E+04

**Q.** And the “Sox 17 Intensity % of control” value [2]?
**A.** 0.3%

**Q.** What about the “Cell Number average” value [3] of the same molecule?
**A.** 3900

**Q.** And the “Sox 17 Intensity average” value [3]?
**A.** 9.50E+04

**Q.** What about the “Sox 17 Intensity % of control” value [3] of the same molecule?
**A.** 1.0%

B7: ACTN57: activin A variant peptide, SEQ ID 58 (protein)
chain: B6 chain with L16S, K19Q, T20A, S39G, T41S, N74W, G107N
**Q.** What does the source list for B7?
**A.** Cell Number average [1]: 4485; Sox 17 Intensity average [1]: 9.99E+05; Sox 17 Intensity % of control [1]: 3.4%; Cell Number average [2]: 6471; Sox 17 Intensity average [2]: 1.74E+06; Cell Number average [4]: 9442; Sox 17 Intensity average [4]: 1.70E+06; Sox 17 Intensity % of control [2]: 5.9% and 6.8%; Cell Number average [3]: 4594; Sox 17 Intensity average [3]: 1.30E+06; Sox 17 Intensity % of control [3]: 4.4%; Cell Number average [5]: 12697; Sox 17 Intensity average [5]: 7.82E+06; Sox 17 Intensity % of control (supernatant concentration 50x, assay dilution 1:20): 31.4%

B8: ACTN55: activin A variant peptide, SEQ ID 56 (protein)
chain: B6 chain with L16S, K19Q, S39G, N74W, K109V
**Q.** Which “Cell Number average” value [1] does the source give for B8 here?
**A.** 2425

**Q.** What about the “Sox 17 Intensity average” value [1] of the same molecule?
**A.** 3.41E+05

**Q.** What about the “Sox 17 Intensity % of control” value [1] of the same molecule?
**A.** 1.2%

**Q.** And the “Cell Number average” value [2]?
**A.** 3611

**Q.** What about the “Sox 17 Intensity average” value [2] of the same molecule?
**A.** 2.67E+05

**Q.** And the “Sox 17 Intensity % of control” value [2]?
**A.** 0.9%

**Q.** What about the “Cell Number average” value [3] of the same molecule?
**A.** 2761

**Q.** What about the “Sox 17 Intensity average” value [3] of the same molecule?
**A.** 5.44E+05

**Q.** And the “Sox 17 Intensity % of control” value [3]?
**A.** 1.8%

B9: ACTN59: activin A variant peptide, SEQ ID 60 (protein)
chain: B6 chain with K19Q, S39G, S82A, T116V
**Q.** How did the “Cell Number average” value [1] turn out when B9 was run?
**A.** 2613

**Q.** What about the “Sox 17 Intensity average” value [1] of the same molecule?
**A.** 1.09E+06

**Q.** And the “Sox 17 Intensity % of control” value [1]?
**A.** 3.7%

**Q.** And the “Cell Number average” value [2]?
**A.** 3304

**Q.** And the “Sox 17 Intensity average” value [2]?
**A.** 2.11E+06

**Q.** What about the “Sox 17 Intensity % of control” value [2] of the same molecule?
**A.** 7.1%

**Q.** And the “Cell Number average” value [3]?
**A.** 1776

**Q.** And the “Sox 17 Intensity average” value [3]?
**A.** 1.81E+06

**Q.** And the “Sox 17 Intensity % of control” value [3]?
**A.** 6.1%

B10: ACTN53: activin A variant peptide, SEQ ID 54 (protein)
chain: B6 chain with L16E, K19Q, T20A, S39G, T41S, N74W
**Q.** How did the “Cell Number average” value [1] turn out when B10 was run?
**A.** 1610

**Q.** What about the “Sox 17 Intensity average” value [1] of the same molecule?
**A.** 1.14E+06

**Q.** What about the “Sox 17 Intensity % of control” value [1] of the same molecule?
**A.** 3.8%

**Q.** And the “Cell Number average” value [2]?
**A.** 3229

**Q.** What about the “Sox 17 Intensity average” value [2] of the same molecule?
**A.** 1.51E+06

**Q.** What about the “Sox 17 Intensity % of control” value [2] of the same molecule?
**A.** 5.1%

**Q.** What about the “Cell Number average” value [3] of the same molecule?
**A.** 3476

**Q.** And the “Sox 17 Intensity average” value [3]?
**A.** 9.41E+05

**Q.** And the “Sox 17 Intensity % of control” value [3]?
**A.** 3.2%
